Source: PMC7515728, “YdiV regulates Escherichia coli ferric uptake by manipulating the DNA-binding ability of Fur in a SlyD-dependent manner” (Nucleic Acids Research, 2020)
Where a chain is given by its changes, count along the chain named.

What was measured:
[1] = target: Fur in the bacterial two-hybrid plasmid pUT18C-fur (Escherichia coli) (UniProt P0A9A9); experiment: two-hybrid; bacterial two-hybrid by reconstitution of adenylate cyclase (T18/T25) in E. coli BTH101; LB-X-Gal plates and β-galactosidase assay (Miller method)
[2] = target: the molecule itself; experiment: SEC; Superdex 200, 10 mM Tris-HCl pH 8.0, 100 mM NaCl, proteins at 100-200 uM, 4°C; 62 kDa and 27 kDa proteins as markers
Fur P29A = target: T1, Fur P29A (Escherichia coli, UniProt P0A9A9 1-148, P29A); experiment: EMSA; 100 uM MnCl2; 30 uM protein; EMSA: 10 mM Tris-HCl pH 7.5, 1 mM MgCl2, 40 mM KCl, 0.1 mg/ml BSA, 5% glycerol, +/-100 uM MnCl2, 25 nM DNA, 37 C 15 min; FP: 10 mM Tris-HCl pH 7.5, 75 mM NaCl; conditions: protein: recombinant; tags: N-terminal His (PreScission-cleavable, removed if necessary); chain copies: 2; label: FAM; blunt
T1 sequence: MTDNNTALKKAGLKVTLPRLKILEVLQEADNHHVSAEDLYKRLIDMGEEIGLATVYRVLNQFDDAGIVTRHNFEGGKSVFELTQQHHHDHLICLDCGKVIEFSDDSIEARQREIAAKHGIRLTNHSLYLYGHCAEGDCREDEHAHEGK

Fur P18AYdiV = target: T2, Fur P18AYdiV (Escherichia coli, UniProt P0A9A9 1-148, P18A); experiment: as above; conditions: protein: recombinant; tags: N-terminal His (PreScission-cleavable, removed if necessary); chain copies: 2; label: FAM; blunt
T2 sequence: T1 sequence with P18A, A29P

Fur P18A = target: T3, Fur P18A (Escherichia coli, UniProt P0A9A9 1-148, P18A); experiment: as above; conditions: protein: recombinant; tags: N-terminal His (PreScission-cleavable, removed if necessary); chain copies: 2; label: FAM; blunt
T3 sequence: T1 sequence with P18A, A29P

Fur P18ASlyD = target: T4, Fur P18ASlyD (Escherichia coli, UniProt P0A9A9 1-148, P18A); experiment: as above; conditions: protein: recombinant; tags: N-terminal His (PreScission-cleavable, removed if necessary); chain copies: 2; label: FAM; blunt
T4 sequence: T1 sequence with P18A, A29P

Zn1Fur = target: T5, Zn1Fur (Escherichia coli, UniProt P0A9A9 1-148); experiment: FP; EDTA-treated Fur, no Mn2+ added; EMSA: 10 mM Tris-HCl pH 7.5, 1 mM MgCl2, 40 mM KCl, 0.1 mg/ml BSA, 5% glycerol, +/-100 uM MnCl2, 25 nM DNA, 37 C 15 min; FP: 10 mM Tris-HCl pH 7.5, 75 mM NaCl; conditions: protein: recombinant; tags: N-terminal His (PreScission-cleavable, removed if necessary); chain copies: 2; label: FAM; blunt
T5 sequence: T1 sequence with A29P

Work on “SlyD in the bacterial two-hybrid plasmid pKNT25-slyD (from UniProt P0A9K9 1-196) (natural protein)” yielded an interaction strength relative to the negative control (β-galactosidase) (times the negative control) [1] of 6.

Molecule “YdiV in the bacterial two-hybrid plasmid pKNT25-ydiV (from UniProt P76204 1-237) (natural protein)” has an interaction strength relative to the negative control (β-galactosidase) (times the negative control) [1] of 3.

B1: native Fur protein (ferric uptake regulator, overexpressed without YdiV) (natural protein, Escherichia coli, UniProt P0A9A9 1-148, looked up)
chain: T1 sequence with A29P
notes: Ferric uptake regulator Fur, Escherichia coli, from plasmid pGL01fur; In the pull-down for mass spectrometry Fur was held on Ni-NTA by its N-terminal His-tag and then released by PreScission cleavage; printed mass 17 089 Da per monomer; also called Zn1Fe1Fur; source: E. coli BL21 harboring pGL01fur; in lysate on Ni-NTA (pull-down) and purified (Ni-NTA, Superdex 200); not shown: His-tag, …
B1 was tested, and the “stoichiometry N” value [2] was 2.

B2: Fur^YdiV protein (Fur co-expressed with untagged YdiV) (natural protein, Escherichia coli, UniProt P0A9A9 1-148, looked up)
chain: T1 sequence with A29P
notes: Ferric uptake regulator Fur, Escherichia coli, from plasmid pGL01fur, co-expressed with YdiV; also called Zn1Fe1Fur^YdiV; source: E. coli BL21 harboring pGL01fur and pACYCydiV; in lysate on Ni-NTA (pull-down) and purified (Ni-NTA, Superdex 200); not shown: His-tag, N-terminal, kept
In the case of B2, the “stoichiometry N” value [2] is reported as 2.

B3: Fur box DNA (dsDNA)
DNA 1: GATAATGATAATGATAATGATAATGATAATGA
DNA 2: TCATTATCATTATCATTATCATTATCATTATC
B3: binds (Fur P29A); binds (Fur P18AYdiV); binds (Fur P18A). The binding result (Fur P18ASlyD) was “binds” and the Kd (Zn1Fur) was 7.2 µM.
